Test results: patent publication US20240392003A1 (NUMAB THERAPEUTICS, published 2024)
Read-outs that look alike come from different tables or passages of the source. One block for each binder: values may come before it.

Legend:
[1] = target: T1, human ROR1 expressed on cells (human, UniProt Q01973 30-937); assay: cell-based or functional assay
[2] = target: T1, human ROR1 expressed on cells; assay: cell-based or functional assay; remark: listed apart in the source
[3] = target: T1, human ROR1 expressed on cells; assay: cell-based or functional assay; remark: listed apart in the source
[4] = target: T1, human ROR1 expressed on cells; assay: cell-based or functional assay; remark: listed apart in the source
[5] = target: T2, recombinant human ROR1 protein (Fc-Tag, Acro Biosystems RO1-H5250) (human, UniProt Q01973 30-406); assay: SPR; hROR1-Fc immobilized;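 further: biacore T200 SPR with ROR1 covalently coupled to a CM5 chip, analyte titration series, apparent rate and equilibrium constants fitted with a 1:1 Langmuir model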
T2 construct: Bought; also called hROR1; recombinant human ROR1 ECD; not shown: Fc tag

[6] = target: T3, recombinant human CD3 epsilon extra-cellular domain protein (His-Tag, SinoBiological) (human, UniProt P07766 23-126); assay: SPR; hCD3ε immobilized, two-state fit;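 further: biacore T200 measurement with target covalently coupled to a CM5 chip, antibody constructs injected as analyte over a concentration series, constants derived in Biacore Evaluation software 3.2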
T3 construct: extracellular domain; Bought; also called hCD3ε; human CD3ε; not shown: His tag

[7] = target: T3, recombinant human CD3 epsilon …; assay: SPR; hCD3ε immobilized, two-state fit (ka1)
[8] = target: T3, recombinant human CD3 epsilon …; assay: SPR; hCD3ε immobilized, two-state fit (kd1)
[9] = target: T1, human ROR1 expressed on cells; assay: flow cytometry, MDA-MB-231 cells, 1 mg/ml hSA
[10] = target: T4, human serum albumin (Sigma-Aldrich A3782) (human, UniProt P02768 25-609); assay: SPR; hSA immobilized, pH 5.5
T4 construct: also called hSA; HSA

[11] = target: T1, human ROR1 expressed on cells; assay: flow cytometry, MDA-MB-231 cells, 1 mg/ml hSA; remark: listed apart in the source

- Avg. % max. lysis (JIMT-1) [2]: 72.1%
- Avg. % max. lysis (MDA-MB-231) [2]: 65.5%
- Avg. % max. lysis (SKOV3) [2]: 83.1%
- Avg. EC50 (nM) CD8 T cell act. (MDA-MB-231) [2]: 0.087 nM
- Avg. EC50 (nM) CD8 T cell act. (SKOV3) [2]: 0.19 nM
- Avg. % max. CD8 T cell act. (JIMT-1) [3]: 47.6%
- Avg. % max. CD8 T cell act. (MDA-MB-231) [3]: 70.4%
- Avg. % max. CD8 T cell act. (SKOV3) [3]: 79.3%
- Avg. EC50 (nM) CD8 T cell act. (JIMT-1) [3]: 1.1 nM
- Avg. EC50 (nM) CD8 T cell act. (MDA-MB-231) [3]: 0.087 nM
- Avg. EC50 (nM) CD8 T cell act. (SKOV3) [3]: 0.19 nM
- Avg. % max. CD4 T cell act. (JIMT-1) [4]: 68%
- Avg. % max. CD4 T cell act. (MDA-MB-231) [4]: 82%
- Avg. % max. CD4 T cell act. (SKOV3) [4]: 87.3%
- Avg. EC50 (nM) CD4 T cell act. (JIMT-1) [4]: 0.8 nM
- Avg. EC50 (nM) CD4 T cell act. (MDA-MB-231) [4]: 0.036 nM
- Avg. EC50 (nM) CD4 T cell act. (SKOV3) [4]: 0.13 nM
- Kd [5]: 0.46 nM
- koff [5]: 0.0006 s⁻¹
- kon [5]: 1.3e+06 M⁻¹ s⁻¹
- Kd [6]: 2.1 nM
- ka2 [6]: 0.0013 s⁻¹
- kd2 [6]: 0.002 s⁻¹
- kon [7]: 1e+06 M⁻¹ s⁻¹
- koff [8]: 0.0036 s⁻¹
- EC50 [9]: 1.36 nM
- Rel. maximum binding (MFIscMATCH3/MFIPRO2213) [9]: 2.61
B1: PRO2510 (bispecific antibody)
chain: AFELTQSPSSLSASVGDRVTITCQASESINSRLAWYQQKPGQPPKLLIYDASDLTSGVPSRFSGSGSGTDFTLTISSLQPEDFATYYCQGYGGSSTTTFGCGTKLTVLGGGGGSEVQLVESGGGLVQPGGSLRLSCAASGFSLSSYDMSWVRQAPGKGLAWIGASYASGPTYYASWAKGRFTISRDNSKNTVYLQMNSLRAEDTATYFCARGGWTGTSHSNIWGQGTLVTVSSGGGGSGGGGSGGGGSGGGGSDIQMTQSPSSLSASVGDRVTITCQSSQSVFSNNYLAWFQQKPGQSPKRLIYSASTLASGVPSRFSGSGSGTDFTLTISSLQPEDFATYYCLGSYACSSADCYVFGTGTKVTVLGGGGGSEVQLVESGGGLVQPGGSLRLSCAASGFSLSSYAMNWVRQAPGKCLEWIGHINAGDIAYYATWAKGRFTISRDNSKNTVYLQMNSLRAEDTAVYFCARGAGGFSTGPFKLWGQGTLVTVSSGGGGSGGGGSAQQLTQSPSSLSASVGDRVTITCQASQNVWNNNYLSWFQQKPGKPPKLLIVTASTLASGVSSRFSGSGSGTDFTLTISSLQPEDFATYYCAGGFSGEIRAFGCGTKVTVLGGGGGSGGGGSGGGGSGGGGSQSQLVESGGGLVQPGGSLRLSCAVSGLSLSRNAMSWVRQAPGKCLEWIGIILTSGSTYYASWAKGRFTISKDNSKNTVYLQMNSLRAEDTAVYFCVRGIASSSLKSFWGQGTLVTVSS
notes: trispecific anti-ROR1 x hSA x CD3 scMATCH3, single chain; also called 19-04-A10-sc06 scDb-o/28-21-D09-sc04 scDb-i/55-39-G02-sc05-scFv
- EC50 (nM) Cytotoxicity (MDA-MB-231) [1]: 0.43 nM
- Avg. EC50 (nM) Cytotoxicity (JIMT-1) [2]: 1.1 nM
- Avg. EC50 (nM) Cytotoxicity (MDA-MB-231) [2]: 0.14 nM
- Avg. EC50 (nM) Cytotoxicity (SKOV3) [2]: 0.25 nM

- Kd [5]: 0.33 nM
- koff [5]: 0.00045 s⁻¹
- kon [5]: 1.4e+06 M⁻¹ s⁻¹
- Kd [10]: 0.062 nM
- koff [10]: 6.7e-05 s⁻¹
- kon [10]: 1.1e+06 M⁻¹ s⁻¹
- Kd [6]: 1.5 nM
- ka2 [6]: 0.00069 s⁻¹
- kd2 [6]: 0.0011 s⁻¹
- fold lower EC50 binding than parental scFv PRO2062 [11]: ~5 fold
- kon [7]: 1.1e+06 M⁻¹ s⁻¹
- koff [8]: 0.0027 s⁻¹
- EC50 [9]: 1.33 nM
- Rel. maximum binding (MFIscMATCH3/MFIPRO2213) [9]: 1.87
B2: PRO2286 (bispecific antibody)
chain: DVVMTQSPSSLSASVGDRVTITCQASQIISSRSAWYQQKPGQPPKLLIYQASKLASGVPSRFSGSGSGTDFTLTISSLQPEDFATYYCQCTYIDSNFGAFGCGTKLTVLGGGGGSEVQLVESGGGLVQPGGSLRLSCAASGFSLSSYDMSWVRQAPGKGLAWIGASYASGPTYYASWAKGRFTISRDNSKNTVYLQMNSLRAEDTATYFCARGGWTGTSHSNIWGQGTLVTVSSGGGGSGGGGSGGGGSGGGGSDIQMTQSPSSLSASVGDRVTITCQSSQSVFSNNYLAWFQQKPGQSPKRLIYSASTLASGVPSRFSGSGSGTDFTLTISSLQPEDFATYYCLGSYACSSADCYVFGTGTKVTVLGGGGGSEVQLVESGGGLVQPGGSLRLSCAASGFSFSSSYWICWVRQAPGKCLEWVGCVFTGDGTTYYASWAKGRFTISRDNSKNTVYLQMNSLRAEDTATYFCARPVSVYYYGMDLWGQGTLVTVSSGGGGSGGGGSAQQLTQSPSSLSASVGDRVTITCQASQNVWNNNYLSWFQQKPGKPPKLLIVTASTLASGVSSRFSGSGSGTDFTLTISSLQPEDFATYYCAGGFSGEIRAFGTGTKVTVLGGGGGSGGGGSGGGGSGGGGSQSQLVESGGGLVQPGGSLRLSCAVSGLSLSRNAMSWVRQAPGKGLEWIGIILTSGSTYYASWAKGRFTISKDNSKNTVYLQMNSLRAEDTAVYFCVRGIASSSLKSFWGQGTLVTVSS
notes: trispecific anti-ROR1 x hSA x CD3 scMATCH3, single chain; also called 23-13-A01-sc02 diS scDb-o/28-21-D09-sc04 scDb-i/55-39-G02-sc02-scFv

- Kd [5]: 0.32 nM
- koff [5]: 0.0004 s⁻¹
- kon [5]: 1.3e+06 M⁻¹ s⁻¹
- Kd [6]: 2.1 nM
- ka2 [6]: 0.0017 s⁻¹
- kd2 [6]: 0.002 s⁻¹
- fold lower EC50 binding than parental scFv PRO2062 [11]: ~5 fold
- kon [7]: 870000 M⁻¹ s⁻¹
- koff [8]: 0.0034 s⁻¹
- EC50 [9]: 1.83 nM
- Rel. maximum binding (MFIscMATCH3/MFIPRO2213) [9]: 1.98
B3: PRO2287 (bispecific antibody)
chain: DIQMTQSPSSLSASVGDRVTITCQSSESVYSNNQLSWYQQKPGQPPKLLIYDASDLASGVPSRFSGSGSGTDFTLTISSLQPEDFATYYCAGGFSSSSDTAFGCGTKLTVLGGGGGSEVQLVESGGGLVQPGGSLRLSCAASGFSLSSYDMSWVRQAPGKGLAWIGASYASGPTYYASWAKGRFTISRDNSKNTVYLQMNSLRAEDTATYFCARGGWTGTSHSNIWGQGTLVTVSSGGGGSGGGGSGGGGSGGGGSDIQMTQSPSSLSASVGDRVTITCQSSQSVFSNNYLAWFQQKPGQSPKRLIYSASTLASGVPSRFSGSGSGTDFTLTISSLQPEDFATYYCLGSYACSSADCYVFGTGTKVTVLGGGGGSEVQLVESGGGLVQPGGSLRLSCAASGFSLSSNAMGWVRQAPGKCLEYIGIISVGGFTYYASWAKGRFTISRDNSKNTVYLQMNSLRAEDTATYFCARDRHGGDSSGAFYLWGQGTLVTVSSGGGGSGGGGSAQQLTQSPSSLSASVGDRVTITCQASQNVWNNNYLSWFQQKPGKPPKLLIVTASTLASGVSSRFSGSGSGTDFTLTISSLQPEDFATYYCAGGFSGEIRAFGTGTKVTVLGGGGGSGGGGSGGGGSGGGGSQSQLVESGGGLVQPGGSLRLSCAVSGLSLSRNAMSWVRQAPGKGLEWIGIILTSGSTYYASWAKGRFTISKDNSKNTVYLQMNSLRAEDTAVYFCVRGIASSSLKSFWGQGTLVTVSS
notes: trispecific anti-ROR1 x hSA x CD3 scMATCH3, single chain; also called 19-01-H04-sc02/3 diS scDb-o/28-21-D09-sc04 scDb-i/55-39-G02-sc02 scFv

- binding result [11]: binds
B4: PRO2658 (bispecific antibody)
chain 1: AQQLTQSPSSLSASVGDRVTITCQASQNVWNNNYLSWFQQKPGKPPKLLIVTASTLASGVSSRFSGSGSGTDFTLTISSLQPEDFATYYCAGGFSGEIRAFGTGTKVTVLGGGGGSGGGGSGGGGSGGGGSQSQLVESGGGLVQPGGSLRLSCAVSGLSLSRNAMSWVRQAPGKGLEWIGIILTSGSTYYASWAKGRFTISKDNSKNTVYLQMNSLRAEDTAVYFCVRGIASSSLKSFWGQGTLVTVSSGGGGSGGGGSAFELTQSPSSLSASVGDRVTITCQASESINSRLAWYQQKPGQPPKLLIYDASDLTSGVPSRFSGSGSGTDFTLTISSLQPEDFATYYCQGYGGSSTTTFGCGTKLTVLGGGSGGSDIQMTQSPSSLSASVGDRVTITCQSSQSVFSNNYLAWFQQKPGQSPKRLIYSASTLASGVPSRFSGSGSGTDFTLTISSLQPEDFATYYCLGSYACSSADCYVFGTGTKVTVLG
chain 2: AQQLTQSPSSLSASVGDRVTITCQASQNVWNNNYLSWFQQKPGKPPKLLIVTASTLASGVSSRFSGSGSGTDFTLTISSLQPEDFATYYCAGGFSGEIRAFGTGTKVTVLGGGGGSGGGGSGGGGSGGGGSQSQLVESGGGLVQPGGSLRLSCAVSGLSLSRNAMSWVRQAPGKGLEWIGIILTSGSTYYASWAKGRFTISKDNSKNTVYLQMNSLRAEDTAVYFCVRGIASSSLKSFWGQGTLVTVSSGGGGSGGGGSEVQLVESGGGLVQPGGSLRLSCAASGFSLSSYDMSWVRQAPGKGLAWIGASYASGPTYYASWAKGRFTISRDNSKNTVYLQMNSLRAEDTATYFCARGGWTGTSHSNIWGQGTLVTVSSGGGSGGGSGGGSGEVQLVESGGGLVQPGGSLRLSCAASGFSLSSYAMNWVRQAPGKCLEWIGHINAGDIAYYATWAKGRFTISRDNSKNTVYLQMNSLRAEDTAVYFCARGAGGFSTGPFKLWGQGTLVTVSS
notes: heterodimeric MATCH4
